B1: Syntenin-1 (Homo sapiens), O00560 (parent)
chain: MSLYPSLEDLKVDKVIQAQTAFSANPANPAILSEASAPIPHDGNLYPRLYPELSQYMGLSLNEEEIRANVAVVSGAPLQGQLVARPSSINYMVAPVTGNDVGIRRAEIKQGIREVILCKDQDGKIGLRLKSIDNGIFVQLVQANSPASLVGLRFGDQVLQINGENCAGWSSDKAHKVLKQAFGEKITMTIRDRPFERTITMHKDSTGHVGFIFKNGKITSIVKDSSAARNGLLTEHNICEINGQNVIGLKDSQIADILSTSGTVVTITIMPAFIFEHIIKRMAPSIMKSLMDHTIPEV
partner: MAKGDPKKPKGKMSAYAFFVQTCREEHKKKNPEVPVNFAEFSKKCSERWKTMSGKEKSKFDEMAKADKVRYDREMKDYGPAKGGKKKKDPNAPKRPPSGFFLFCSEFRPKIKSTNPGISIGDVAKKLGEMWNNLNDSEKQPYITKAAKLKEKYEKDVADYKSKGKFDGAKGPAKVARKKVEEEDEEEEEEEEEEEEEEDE
B2: Tyrosine-protein kinase FRK (Homo sapiens), P42685 (parent)
chain: MSNICQRLWEYLEPYLPCLSTEADKSTVIENPGALCSPQSQRHGHYFVALFDYQARTAEDLSFRAGDKLQVLDTLHEGWWFARHLEKRRDGSSQQLQGYIPSNYVAEDRSLQAEPWFFGAIGRSDAEKQLLYSENKTGSFLIRESESQKGEFSLSVLDGAVVKHYRIKRLDEGGFFLTRRRIFSTLNEFVSHYTKTSDGLCVKLGKPCLKIQVPAPFDLSYKTVDQWEIDRNSIQLLKRLGSGQFGEVWEGLWNNTTPVAVKTLKPGSMDPNDFLREAQIMKNLRHPKLIQLYAVCTLEDPIYIITELMRHGSLQEYLQNDTGSKIHLTQQVDMAAQVASGMAYLESRNYIHRDLAARNVLVGEHNIYKVADFGLARVFKVDNEDIYESRHEIKLPVKWTAPEAIRSNKFSIKSDVWSFGILLYEIITYGKMPYSGMTGAQVIQMLAQNYRLPQPSNCPQQFYNIMLECWNAEPKERPTFETLRWKLEDYFETDSSYSDANNFIR
partner: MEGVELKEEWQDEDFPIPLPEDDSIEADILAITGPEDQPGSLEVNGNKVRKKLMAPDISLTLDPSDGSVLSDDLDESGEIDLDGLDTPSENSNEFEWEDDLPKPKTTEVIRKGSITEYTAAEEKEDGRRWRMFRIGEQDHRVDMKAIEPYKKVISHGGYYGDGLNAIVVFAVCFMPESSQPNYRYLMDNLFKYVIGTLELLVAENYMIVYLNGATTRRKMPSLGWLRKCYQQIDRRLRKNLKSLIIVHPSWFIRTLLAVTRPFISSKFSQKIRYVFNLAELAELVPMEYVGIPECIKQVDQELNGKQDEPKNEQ
B3: Serine/threonine-protein kinase PAK 5 (Homo sapiens), Q9P286 (parent)
chain: MFGKKKKKIEISGPSNFEHRVHTGFDPQEQKFTGLPQQWHSLLADTANRPKPMVDPSCITPIQLAPMKTIVRGNKPCKETSINGLLEDFDNISVTRSNSLRKESPPTPDQGASSHGPGHAEENGFITFSQYSSESDTTADYTTEKYREKSLYGDDLDPYYRGSHAAKQNGHVMKMKHGEAYYSEVKPLKSDFARFSADYHSHLDSLSKPSEYSDLKWEYQRASSSSPLDYSFQFTPSRTAGTSGCSKESLAYSESEWGPSLDDYDRRPKSSYLNQTSPQPTMRQRSRSGSGLQEPMMPFGASAFKTHPQGHSYNSYTYPRLSEPTMCIPKVDYDRAQMVLSPPLSGSDTYPRGPAKLPQSQSKSGYSSSSHQYPSGYHKATLYHHPSLQSSSQYISTASYLSSLSLSSSTYPPPSWGSSSDQQPSRVSHEQFRAALQLVVSPGDPREYLANFIKIGEGSTGIVCIATEKHTGKQVAVKKMDLRKQQRRELLFNEVVIMRDYHHDNVVDMYSSYLVGDELWVVMEFLEGGALTDIVTHTRMNEEQIATVCLSVLRALSYLHNQGVIHRDIKSDSILLTSDGRIKLSDFGFCAQVSKEVPKRKSLVGTPYWMAPEVISRLPYGTEVDIWSLGIMVIEMIDGEPPYFNEPPLQAMRRIRDSLPPRVKDLHKVSSVLRGFLDLMLVREPSQRATAQELLGHPFLKLAGPPSCIVPLMRQYRHH
partner: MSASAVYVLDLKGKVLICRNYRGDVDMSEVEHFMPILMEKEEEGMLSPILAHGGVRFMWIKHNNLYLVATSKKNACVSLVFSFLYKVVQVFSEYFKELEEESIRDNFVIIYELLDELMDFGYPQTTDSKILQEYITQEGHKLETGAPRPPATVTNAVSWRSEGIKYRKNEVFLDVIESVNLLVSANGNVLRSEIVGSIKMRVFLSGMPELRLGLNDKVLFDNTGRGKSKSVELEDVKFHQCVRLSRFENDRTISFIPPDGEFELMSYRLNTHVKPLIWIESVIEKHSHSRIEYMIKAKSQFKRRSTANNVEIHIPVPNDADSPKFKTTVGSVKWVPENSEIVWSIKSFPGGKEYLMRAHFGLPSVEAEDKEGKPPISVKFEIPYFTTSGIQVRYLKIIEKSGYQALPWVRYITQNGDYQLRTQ
B4: Thialysine N-epsilon-acetyltransferase (Homo sapiens), Q96F10 (parent)
chain: MASVRIREAKEGDCGDILRLIRELAEFEKLSDQVKISEEALRADGFGDNPFYHCLVAEILPAPGKLLGPCVVGYGIYYFIYSTWKGRTIYLEDIYVMPEYRGQGIGSKIIKKVAEVALDKGCSQFRLAVLDWNQRAMDLYKALGAQDLTEAEGWHFFCFQGEATRKLAGK
B5: Sperm microtubule associated protein 2 (Homo sapiens), Q9P2T0 (parent)
chain: MGDSRRRSLGNQPSSEAAGRSEREQDGDPRGLQSSVYESRRVTDPERQDLDNAELGPEDPEEELPPEEVAGEEFPETLDPKEALSELERVLDKDLEEDIPEISRLSISQKLPSTTMTKARKRRRRRRLMELAEPKINWQVLKDRKGRCGKGYAWISPCKMSLHFCLCWPSVYWTERFLEDTTLTITVPAVSRRVEELSRPKRFYLEYYNNNRTTPVWPIPRSSLEYRASSRLKELAAPKIRDNFWSMPMSEVSQVSRAAQMAVPSSRILQLSKPKAPATLLEEWDPVPKPKPHVSDHNRLLHLARPKAQSDKCVPDRDPRWEVLDVTKKVVASPRIISLAKPKVRKGLNEGYDRRPLASMSLPPPKASPEKCDQPRPGL

Variants of: B1
Details: with hmgb3_human HMGB3, O15347
For K124R, the “effect of a mutation on the interaction” value was “with no effect”.

Variants of: B2
Details: with bnip2_human BNIP2, Q12982
For G122R, the “effect of a mutation on the interaction” value was “disrupting interaction strength”.

Variants of: B3
Details: with ap1m1_human AP1M1, Q9BXS5
V604I was tested, and the “effect of a mutation on the interaction” value was “with no effect”. In the case of S511N, the “effect of a mutation on the interaction” value is reported as “with no effect”.

Variants of: B4
Details: with sat1_human SAT1, P21673
Sequence of sat1_human SAT1, P21673 (P21673 whole entry): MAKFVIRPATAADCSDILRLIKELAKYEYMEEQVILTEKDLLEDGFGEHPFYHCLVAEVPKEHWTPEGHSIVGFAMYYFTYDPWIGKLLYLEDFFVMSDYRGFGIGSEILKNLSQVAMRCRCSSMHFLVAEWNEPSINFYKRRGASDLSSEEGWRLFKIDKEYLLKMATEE
R126C was tested, and the “effect of a mutation on the interaction” value was “disrupting interaction strength”.

Variants of: B5
Details: with fhl3_human FHL3, Q13643
Sequence of fhl3_human FHL3, Q13643 (Q13643 whole entry): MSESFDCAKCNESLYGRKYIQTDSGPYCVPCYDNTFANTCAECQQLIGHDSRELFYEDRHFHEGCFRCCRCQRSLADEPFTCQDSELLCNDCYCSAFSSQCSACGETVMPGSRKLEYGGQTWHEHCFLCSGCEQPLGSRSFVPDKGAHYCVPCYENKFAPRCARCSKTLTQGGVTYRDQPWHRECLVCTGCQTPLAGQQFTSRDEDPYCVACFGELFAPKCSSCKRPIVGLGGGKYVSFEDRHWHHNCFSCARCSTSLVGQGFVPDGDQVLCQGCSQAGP
H297Y was tested, and the “effect of a mutation on the interaction” value was “with no effect”. R176W was tested, and the “effect of a mutation on the interaction” value was “with no effect”. With M249V the “effect of a mutation on the interaction” value was “with no effect”. With R176Q the “effect of a mutation on the interaction” value was “with no effect”. With S39N the “effect of a mutation on the interaction” value was “with no effect”. For P66S, the “effect of a mutation on the interaction” value was “with no effect”.
